One substance from patent US20240409618A1 can be followed below.

In this assay the target is SARS-CoV-2 spike protein (isolate USA-WA1/2020) on pseudotyped virus (SARS-CoV-2 (USA-WA1/2020)) (UniProt P0DTC2). Briefly: cell-based or functional assay.

DMAb 2130_FcTM (antibody) displayed a serum potency (IC50), neutralization of WA1/2020 pseudovirus of 1 to 2 ng/mL.
